The text below walks through data of publication PMC4635490, “VP22 core domain from Herpes simplex virus 1 reveals a surprising structural conservation in both the Alpha- and Gammaherpesvirinae subfamilies” (The Journal of General Virology, 2015).

This series deals with the molecule itself. In words: SEC-MALS; Superdex 200 5/150 GL, 20 mM HEPES pH 7.5, 300 mM NaCl, 10 % glycerol, 2 mM TCEP; 20 µl of 6 mg/ml VP22core injected, 0.3 ml/min. For orientation: SEC sorts molecules by how far they enter the pores of the column.

B1: VP22 core domain (conserved C-terminal domain) from Herpes simplex virus 1, residues 174-281 (domain or fragment)
chain: RKLHFSTAPPNPDAPWTPRVAGFNKRVFCAAVGRLAAMHARMAAVQLWDMSRPRTDEDLNELLGITTIRVTVCEGKNLLQRANELVNPDVVQDVDAATATRGRSAASR
notes: VP22 tegument protein of Herpes simplex virus 1 (Human herpesvirus 1), GenBank BAE87004.1, residues 174-281; electron density seen for residues 174-260 plus three amino acids of the N-terminal tag; The tag was not removed: the monomer mass of 14 551 g/mol includes the purification tag and the TEV site; source: bacterial cells, purified (HisTrap HP, Superdex 75 size exclusion); not shown: His6, …
One may read the stoichiometry N as a count of units in the complex or per binding partner. In the case of B1, the “stoichiometry N” value is 2.
